The values that follow come from patent US12044680.

Assay [1] deals with HLA-A*02:01 tetramer (human). Description: peptide exchange on HLA-A*02:01 tetramer, entering peptide 20 µM, 4 h; competitor: exiting peptide ILKEKK(DNP)VHGV; capture on anti HLA-ABC beads, anti-DNP FITC, flow cytometry. For orientation: Flow cytometry measures light scatter and fluorescence of single cells or particles in a stream.
In assay [2] the target is HLA-A*24:02 tetramer (human).
Assay [3] addresses HLA-A*02:01 tetramer (human).
Assay [4] has as its target T1, H-2 Kb tetramer (murine), P01901.
T1 chain: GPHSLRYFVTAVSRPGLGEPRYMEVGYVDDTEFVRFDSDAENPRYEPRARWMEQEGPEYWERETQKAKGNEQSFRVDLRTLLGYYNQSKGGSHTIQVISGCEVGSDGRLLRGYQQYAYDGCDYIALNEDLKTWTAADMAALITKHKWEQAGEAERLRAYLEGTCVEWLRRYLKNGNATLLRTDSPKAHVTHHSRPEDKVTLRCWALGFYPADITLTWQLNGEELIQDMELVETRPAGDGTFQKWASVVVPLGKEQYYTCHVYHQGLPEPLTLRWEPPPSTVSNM

For assay [5], the target named is HLA-A*24:02 tetramer (human). Description: peptide exchange on HLA-A*24:02 tetramer, competing peptide 20 µM, 4 h; competitor: exiting peptide TFQRK(DNP)PAAF; capture on anti HLA-ABC beads, anti-DNP FITC, flow cytometry.
For assay [6], the target named is T1, H-2 Kb tetramer (murine), P01901. Description: peptide exchange on H-2 Kb APC tetramer, reference peptide 20 µM, glycyl-methionine, 4 h; competitor: exiting peptide TFQRK(DNP)PAAF; bead sandwich immunoassay, flow cytometry.
For assay [7] the target is unchanged. Description: peptide exchange on H-2 Kb PE tetramer, reference peptide 2 µM, glycyl-methionine, 4 h; competitor: exiting peptide TFQRK(DNP)PAAF; bead sandwich immunoassay, flow cytometry.
The target is the same in assay [8]. Description: peptide exchange on H-2 Kb BV421 tetramer, reference peptide 20 µM, glycyl-methionine, 4 h; competitor: exiting peptide TFQRK(DNP)PAAF; bead sandwich immunoassay, flow cytometry.
Assay [9] has the same target. The assay can be described thus: peptide exchange on H-2 Kb PE tetramer, reference peptide 20 µM, glycyl-methionine, 4 h; bead sandwich immunoassay, flow cytometry.
Assay [10] has the same target. Description: peptide exchange on H-2 Kb BV421 tetramer, reference peptide 2 µM, glycyl-methionine, 4 h; competitor: exiting peptide TFQRK(DNP)PAAF; bead sandwich immunoassay, flow cytometry.
The target is the same in assay [11]. Description: peptide exchange on H-2 Kb APC tetramer, reference peptide 2 µM, glycyl-methionine, 4 h; competitor: exiting peptide TFQRK(DNP)PAAF; bead sandwich immunoassay, flow cytometry.
[12] abbreviates: remark: other sources report otherwise.

Several values for one entry are separate records, joined by “and”; a condition that tells them apart may be missing. Identical values can stand only once. Like-named read-outs stand apart in the source and are kept apart here.

B1: … (SEQ ID NO: 47) (peptide)
peptide: SYVPSAEQI
modifications: not checked
As for B1, the % peptide exchange in [1] worked out at 25%.

B2: … (SEQ ID NO: 28) (peptide)
peptide: LNMADKKET
modifications: not checked
As for B2, in [2], the % peptide exchange was 10.3%.

B3: … (SEQ ID NO: 36) (peptide)
peptide: CINGVCWTV
modifications: not checked
Consider B3, for which the % peptide exchange in [3] came to 85.3%.

B4: … (SEQ ID NO: 46) (peptide)
peptide: ALALEVGEL
modifications: not checked
B4 had a % peptide exchange in [1] of 85.1%.

B5: … (SEQ ID NO: 35) (peptide)
peptide: WMHKVPASL
modifications: not checked
Molecule B5 yielded a % peptide exchange in assay [1] of 87.9%.

B6: … (SEQ ID NO: 49) (peptide)
peptide: IRLRPGGKK
modifications: not checked
In assay [3], B6 gave a % peptide exchange of 25%.

B7: TFQRK(DNP)PAAF (SEQ ID NO: 16) (peptide)
peptide: TFQRKPAAF
modifications: not checked
In the case of B7, the % peptide exchange (loss of the exiting peptide without entering peptide) in [4] is 16% and 13.3% and 30.4%.

B8: HLA-A*02:01 Reference peptide, … (SEQ ID NO: 5) (peptide)
peptide: YLLEFTPPV
modifications: not checked
B8 displayed a % peptide exchange in assay [1] of 91.9%.

B9: … (SEQ ID NO: 37) (peptide)
peptide: WMHHNMDLI
modifications: not checked
In turn, B9 came in with a % peptide exchange in [1] of 89.2%.

B10: … (SEQ ID NO: 44) (peptide)
peptide: CSLWNGPHL
modifications: not checked
As for B10, the % peptide exchange in assay [1] amounted to 55.2%.

B11: … (SEQ ID NO: 48) (peptide)
peptide: ATVQGQNLK
modifications: not checked
In assay [1], B11 had a % peptide exchange of 27.9%.

B12: … (SEQ ID NO: 45) (peptide)
peptide: EYILSLEEL
modifications: not checked
Regarding B12, the % peptide exchange in assay [1] is 24.2%.

B13: … (SEQ ID NO: 25) (peptide)
peptide: GYSLKLSKL
modifications: not checked
In assay [2], B13 displayed a % peptide exchange of 37.9%.

B14: … (SEQ ID NO: 38) (peptide)
peptide: SLPPPGTRV
modifications: not checked
Regarding B14, in assay [1] (setting [12]), the % peptide exchange is 86.6%.

B15: … (SEQ ID NO: 18) (peptide)
peptide: AMAPRTLLL
modifications: not checked
In turn, B15 yielded a % peptide exchange in assay [5] of 81.6%.

B16: … (SEQ ID NO: 42) (peptide)
peptide: RIKDFLRNL
modifications: not checked
Molecule B16 gave a % peptide exchange in assay [1] of 34%.

B17: … (SEQ ID NO: 27) (peptide)
peptide: IYSTVASSL
modifications: not checked
In assay [2], B17 registered a % peptide exchange of 101%.

B18: … (SEQ ID NO: 43) (peptide)
peptide: ALLAVGATK
modifications: not checked
Regarding B18, the % peptide exchange in assay [1] was determined as 25.7%.

B19: … (SEQ ID NO: 41) (peptide)
peptide: IMQIMPYGC
modifications: not checked
B19 showed a % peptide exchange in assay [1] of 59.9%.

B20: … (SEQ ID NO: 30) (peptide)
peptide: RVRAYTYSK
modifications: not checked
As to B20, the % peptide exchange in assay [2] was 10.3%.

B21: … (SEQ ID NO: 24) (peptide)
peptide: GLAVVTHGL
modifications: not checked
B21: the % peptide exchange in assay [1] was 91%.

B22: reference entering peptide (SIYRYYGL (SEQ ID NO: 59)) (peptide)
peptide: SIYRYYGL
modifications: not checked
For the molecule B22, the % peptide exchange in assay [6] was 99.1%; in [7], 92.7%; in [8], 97.3%; in [9], 100%; in [10] it was 90.6%; in assay [11] it was 97.1%.

B23: … (SEQ ID NO: 39) (peptide)
peptide: LTLGEFLKL
modifications: not checked
Turning to B23, the % peptide exchange in assay [1] stood at 43.6%.

B24: … (SEQ ID NO: 31) (peptide)
peptide: RYMRWTYRF
modifications: not checked
Molecule B24 displayed a % peptide exchange in [2] of 101%.

B25: … (SEQ ID NO: 40) (peptide)
peptide: IMQLMPFGC
modifications: not checked
B25 gave a % peptide exchange in assay [1] (setting [12]) of 40.9%.

B26: … (SEQ ID NO: 34) (peptide)
peptide: AVLDGLLSL
modifications: not checked
The molecule B26 gave a % peptide exchange in [1] of 90.7%.

B27: … (SEQ ID NO: 23) (peptide)
peptide: GLADQLIHL
modifications: not checked
For B27, the % peptide exchange in assay [3] stood at 91.4%.

B28: … (SEQ ID NO: 33) (peptide)
peptide: FLYDDNQRV
modifications: not checked
B28: the % peptide exchange in assay [1] stood at 91.2%.

B29: … (SEQ ID NO: 21) (peptide)
peptide: FLSELTQQL
modifications: not checked
In turn, B29 gave a % peptide exchange in [5] of 23.6%.
